Our source for the PTHR1 internalization values is US20090253630A1.

This assay has as its target PTHR-emGFP expressed in transfected HEK 293 cells. The assay is described as follows: cell-based or functional assay.

In the case of “PTH(1-38) (from UniProt P01270 32-69) (peptide)”, the PTHR1 internalization at 20 min, 100 nM compound, percent of vehicle only control (baseline=100%) (% of vehicle only control) is 166; the PTHR1 internalization at 40 min, 100 nM compound, percent of vehicle only control (baseline=100%) (% of vehicle only control) is 177; the PTHR1 internalization at 60 min, 100 nM compound, percent of vehicle only control (baseline=100%) (% of vehicle only control) amounted to 224; the PTHR1 internalization at 180 min, 100 nM compound, percent of vehicle only control (baseline=100%) (% of vehicle only control) is 175.
